Data from patent publication US20250163183A1 (COAGULANT THERAPEUTICS, published 2025).
Positions count from the first letter of the chain named.

B1: SR16983-R3-P4-G01 (VHH)
VHH: QLQLVESGGGLVQAGGSLRLSCAASGRTFVGSYVMGWFRQAPGKEREFVAASSRSTGNTVYLDSVKGRFTISRDDAKNMLYLQMNSLKPEDTAVYYCATRASINYNYANWPYWGQGTQVTVSS
B2: SR16983-R2-P2-D08 (VHH)
VHH: QLQLVESGGGLVQAGDSLRLSCALSGLAASTYAMAWFRQAPGKEREFVSVIDWKGDSTTANSVKGRFTISRDHGKNTVYLQMNSLQPEDTALYYCAARGSPGYVAKLYAHWGRGTQVTVSS
B3: SR16983-R2-P2-D05 (VHH)
VHH: QVQLVESGGGLVQPGGSLTLSCAASGTIESINDMGWYRQAPGKQRELVAAITSGGSTNYADSVKGRFTISRDNAKNTVYLQMNSLKPEDTAVYYCNAEVKRHYYYDSAGHRYWGQGTQVTVSS
B4: SR16983-R2-P2-C04 (VHH)
VHH: QLQLVESGGGLVQAGGSLRLSCAASRTTFRINGVDWYRQVPGKQRELVATASSDGPTNYAESVKGRFTISRDNAKNTVYLQMNSLKPEDTAVYYCRIVLPSRIIWGQGTQVTVSS
B5: SR16983-R2-P2-F02 (VHH)
VHH: QLQLVESGGGLVQAGGSLRLSCAASGTTFSFVYMGWYRQAPGNQRDLVARISSDGSTNYADSVKGRFTISRDNAKNTVYLQMNSLRPEDTARYYCFYNGHLNKWGQGTQVTVSS
B6: SR16983-R2-P2-H04 (VHH)
VHH: B5 VHH with L2V, Y37F, R71G, R86K, Y94F, G99A
B7: SR16983-R2-P2-F07 (VHH)
VHH: B5 VHH with T27S, V32N, D54G, S56I, R71G, N76D, R86K, H100Y
B8: SR16983-R3-P2-G01 (VHH)
VHH: B5 VHH with T27S, V32N, D54G, S56I, R71G, R86K, H100Y, Q106R
B9: SR16983-R2-P2-D01 (VHH)
VHH: QLQLVESGGGLVQAGGSLRLSCVASGRTFSTYAMGWFRQAPGKEREFVGAIRWDGGSTNYANSVKGRFTISRDNAKNTVYLQVNSLKPEDTAVYYCAARASINYNYANWPYWGRGTQVTVSS
B10: SR16983-R2-P2-G01 (VHH)
VHH: EVQLVESGGGLVQAGESLRLSCVVSGSRFRISGMGWYRQAPEKQRELVAAITRGGSTNYSDSVKGRFTISSDNAKNTVYLQMNSLKPDDTDVYYCAATVLDIPTMSTDDYWGQGTQVTVSS
B11: SR16983-R2-P4-E06 (VHH)
VHH: QLQLVESGGDLVQAGGSLRLSCAASGFTLDDYAIGWFRQAPGKEREGVSCIASSDGSTYYADSVKGRFTISTDNAKNTVYLQMNSLKPEDTAVYYCARGGLLLPKPELFDSWGQGTQVTVSS
B12: SR16983-R3-P5-F04 (VHH)
VHH: B11 VHH with D10G, D110E, S111Y
B13: SR16983-R3P2D02 (VHH)
VHH: QLQLVESGGGLVQPGGSLRLSCAASGFTLDGYAIGWFRQAPGKEREGVSSIATSDGSTYYADSVKGRFTISGDDAKNTVYLHMNSLKPEDTAVYYCARGGSLVLRPKYYDYWGQGTQVTVSS
B14: SR16983-R3-P3-A08 (VHH)
VHH: B1 VHH with Q1E, L2V, S32T, E45A, I71V, M79T, T99A, Y107A
B15: SR16983-R4-P1-C12 (VHH)
VHH: QLQLVESGGGLVQAGGSLRLSCAASGSTFSINVFAWYRQGSGEQRELVAFIGRSGTARYGDSVKGRFSISRDNAKKTVYLQMDSLRPEDTAVYYCNLGDYWGQGTQVTVSS
B16: SR16983-R4-P1-A05 (VHH)
VHH: EVQLVESGGGLVQAGESLRLSCVLSGSTFGRNVITWYRQPPGKQREFIAMITTSGNTRYADSVKGRFTMSRDTAKNTAFLQMSNLKLEDTAVYYCWTAIAGQGEYWGQGTQVTVSS
B17: SR16983-R2-P3-E05 (VHH)
VHH: EVQLVESGGGLVQAGGSLRLSCAASGLTASTYVMAWFRQAPGKERDFVSLIDWRGEPTYANSVKGRFTISRDNGKNTVFLQMNSLRPEDTALYYCAVRASPGYVASLYPYWGRGTQVTVSS
B18: SR16983-R3-P2-F07 (VHH)
VHH: QLQLVESGGGLVQAGGSLRLSCAASGTTFDMNSMGWYRQAPGFKRDLVATISIGGDTNYADSVKGRFTISRDNAKNTVYMQMNSLKPEDTAVYYCNAERIWPNRRSFWGQGTQVTVSS
B19: SR16983-R2P1C08 (VHH)
VHH: QVQLVESGGGLVQPGGSLRLSCAASGRTFSNYAMGWFRQAPGKERRFVAGISRDDTSTSYADSVKGRFTILRDRSKNTVDLQMNSLKPEDTAIYYCAAARGIYGEISRYTGDYDSWGQGTQVTVSS
B20: SR16983-R3-P2-D01 (VHH)
VHH: EVQLVESGGGLVQAGGSLRLSCAASGFTFSTKWMYWVRQGPGKGLEWVSTIDASGGSTYYADSVKGRFTISRDNTEKKVYLQMNSLESADTAVYYCARSAGGQFRGRGTQVTVSS
B21: SR16983-R3-P3-H05 (VHH)
VHH: QVQLVESGGGLVQPGRSLRLSCAASGFTFSTKWMYWVRQGPGKGLERVAAIDAGGGSTYYADSVKGRFTISRDNSENTVYLQMNSLESADTAVYYCARSEGGLFRGRGTQVTVSA
B22: SR16983-R3-P5-C09 (VHH)
VHH: B21 VHH with V2L, R16G, G54S, E76K, V79L, L103Q, A115S
B23: SR16983-R2-P3-B05 (VHH)
VHH: QLQLVESGGGLVQPGGSLRLSCAASGRTVGSYVMGWFRQAPGKEREFLAANSRSTGNTVYADSVKGRFTISRDDAKNTLYLQMNSLKPEDTAVYYCATRASINYNYANWPYWGQGTQVTVSS
B24: SR16983-R2-P4-D07 (VHH)
VHH: B23 VHH with L2V, P14A, V29I, L48V, A49V, N51F, N57H, T58I, V59S, T98A
B25: SR16983-R4-P1-C05 (VHH)
VHH: B23 VHH with P14A, V29F, E46A, L48V, A49G, N51A, N57T, A61L, T98A
B26: SR16983-R3-P3-E04 (VHH)
VHH: B23 VHH with L2V, P14A, V29F, L48V, N51A, A61P, T98A
B27: SR16983-R3-P5-F03 (VHH)
VHH: B23 VHH with L2V, P14A, S31T, V33A, M34I, L48V, N51F, A61P, T98A
B28: SR16983-R3-P4-E06 (VHH)
VHH: B23 VHH with P14A, V33A, M34V, G35A, F47L, N51S, S71A, T98A
B29: SR16983-R3-P5-A06 (VHH)
VHH: QLQLVESGGGLVQAGGSLRLSCVASGTTFTIEDIGWYRLAPGKQRELVAIISGGNTNYADSVKGRFTISRDNAKNTVYLQMNSLKPEDTAVYYCNGRTKATVKWGRGTQVTVSS
B30: SR16983-R2-P5-D01 (VHH)
VHH: B29 VHH with A73T
B31: SR16983-R2-P5-A12 (VHH)
VHH: QVQLVESGGGLVEAGGSLRLSCAASGRTFSSGALGWFRQAPGKEREFVATIRWSDERKQYSEFVKGRFTISRDSAKNTVYLQMNNLQPEDTAVYYCRSTVGNVLYWGQGTQVTVSS
B32: SR16983-R2-P4-E03 (VHH)
VHH: B31 VHH with E13Q
B33: SR16983-R3P2H10 (VHH)
VHH: B21 VHH with V2L, R16G

What follows are binders tested against T1, human protein C (PC) zymogen (human, UniProt P04070 43-197; P04070 200-461) (assay: ELISA).
T1 construct: Bought
T1 sequence (P04070 43-197, chain 1 of 2): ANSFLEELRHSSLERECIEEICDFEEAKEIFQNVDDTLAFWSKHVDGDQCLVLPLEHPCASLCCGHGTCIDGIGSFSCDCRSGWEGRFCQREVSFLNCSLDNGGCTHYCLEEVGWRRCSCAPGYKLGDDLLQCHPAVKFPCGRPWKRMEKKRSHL
T1 sequence (P04070 200-461, chain 2 of 2): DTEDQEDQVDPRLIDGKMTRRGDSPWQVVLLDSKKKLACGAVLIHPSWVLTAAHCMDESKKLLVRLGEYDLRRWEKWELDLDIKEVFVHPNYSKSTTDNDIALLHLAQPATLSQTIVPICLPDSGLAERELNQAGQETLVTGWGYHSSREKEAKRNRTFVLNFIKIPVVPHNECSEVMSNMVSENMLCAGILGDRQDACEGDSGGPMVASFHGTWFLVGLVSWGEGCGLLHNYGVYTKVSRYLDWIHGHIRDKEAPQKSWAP

binding result	Binder
no binding	B1
no binding	B2
no binding	B3

The binders below were run against T2, human APC-PPACK (active site-blocked APC) (human, UniProt P04070 43-461, active site bound by the tripeptide inhibitor Phe-Pro-Arg-chloromethylketone (PPACK)) (assay: ELISA).
T2 construct: Bought (Haematologic Technologies)
T2 sequence (P04070 other isoform, or with tags, fused parts or gaps): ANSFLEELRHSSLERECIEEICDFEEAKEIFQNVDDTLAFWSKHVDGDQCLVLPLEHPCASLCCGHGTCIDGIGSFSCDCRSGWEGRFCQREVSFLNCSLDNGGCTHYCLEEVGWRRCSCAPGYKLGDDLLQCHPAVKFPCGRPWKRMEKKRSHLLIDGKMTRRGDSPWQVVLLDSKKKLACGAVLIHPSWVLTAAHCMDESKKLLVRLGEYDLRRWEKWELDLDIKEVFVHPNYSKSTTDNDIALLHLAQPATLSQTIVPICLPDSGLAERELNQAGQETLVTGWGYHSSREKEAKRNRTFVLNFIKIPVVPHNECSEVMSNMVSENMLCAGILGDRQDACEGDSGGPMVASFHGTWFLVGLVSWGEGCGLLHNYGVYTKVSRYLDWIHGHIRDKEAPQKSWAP

binding result	Binder
binds	B4
binds	B5
binds	B6
binds	B7
binds	B8
binds	B9
binds	B10
binds	B11
binds	B12
binds	B13
binds	B14
binds	B1
binds	B15
binds	B2
binds	B16
binds	B17

binding result	Binder
binds	B18
binds	B19
binds	B20
binds	B21
binds	B22
binds	B23
binds	B24
binds	B25
binds	B26
binds	B27
binds	B28
binds	B3
binds	B29
binds	B30
binds	B31
binds	B32

The binders below were run against T1, human protein C (PC) zymogen (assay: ELISA screen, PC-coated wells, OD450, n=2 [Continued]).

binding result	Binder
no binding	B9
no binding	B13
no binding	B15
no binding	B17
no binding	B30

What follows are binders tested against T1, human protein C (PC) zymogen (assay: ELISA screen, PC-coated wells, OD450, n=2).

binding result	Binder
no binding	B4
no binding	B5
no binding	B6
no binding	B7
no binding	B8
no binding	B10
no binding	B11
no binding	B12
no binding	B14
no binding	B16
no binding	B18
no binding	B19
no binding	B20
no binding	B33
no binding	B21
no binding	B22
no binding	B23
no binding	B24
no binding	B25
no binding	B26
no binding	B27
no binding	B28
no binding	B29
no binding	B31
no binding	B32
